Data taken from patent US20250276090A1, “Methods and Compositions for Genetically Modifying a Cell” (Intellia Therapeutics, Inc., priority 2022, published 2025).
Strand notation (5' to 3'): a small letter for the sugar, then the base; units joined by * are phosphorothioate-linked, units joined directly phosphodiester-linked; [ ] holds rarer units or linkages, { } end groups; capitals alone tell only the bases. m = 2'-O-methyl; r = 2'-OH (RNA)

Assays:
Format in all cases: cell-based, human
TRBC1 locus = assay: NGS percent editing with SpyCas9 and Nme2 base editor, TRBC1 (Example 9); details: TRBC1 BE guide, Day 7
From the text: (§1) Genomic DNA was extracted using QuickExtract™ DNA Extraction Solution (Lucigen, Cat. No. QE09050) according to manufacturer's protocol.
(§2) To quantitatively determine the efficiency of editing at the target location in the genome, deep sequencing was utilized to identify the presence of insertions, deletions, and substitution introduced by gene editing. PCR primers were designed around the target site within the gene of interest (e.g., HLA-A) and the genomic area of interest was amplified. Primer sequence design was done as is standard in the field.
(§3) Additional PCR was performed according to the manufacturer's protocols (Illumina) to add chemistry for sequencing. The amplicons were sequenced on an Illumina MiSeq instrument. The reads were aligned to the human reference genome (e.g., hg38) after eliminating those having low quality scores. Reads that overlapped the target region of interest were re-aligned to the local genome sequence to improve the alignment. Then the number of wild type reads versus the number of reads which contain C-to-T mutations, C-to-A/G mutations or indels was calculated. Insertions and deletions were scored in a 20 bp region centered on the predicted Cas9 cleavage site. Indel percentage is defined as the total number of sequencing reads with one or more base inserted or deleted within the 20 bp scoring region divided by the total number of sequencing reads, including wild type. C-to-T mutations or C-to-A/G mutations were scored in a 40 bp region including 10 bp upstream and 10 bp downstream of the 20 bp sgRNA target sequence. The C-to-T editing percentage is defined as the total number of sequencing reads with either one or more C-to-T mutations within the 40 bp region divided by the total number of sequencing reads, including wild type. The percentage of C-to-A/G mutations are calculated similarly.
(§4) Isolated, cryopreserved T cells were thawed in a water bath and plated at a density of 1×10^6 cells/mL in TCAM media containing CTS OpTmizer T Cell Expansion SFM and T Cell Expansion Supplement (ThermoFisher Cat. A1048501), 1× Penicillin-Streptomycin, 1× Glutamax, 10 mM HEPES, 200 U/mL recombinant human interleukin-2 (Peprotech, Cat. 200-02), 5 ng/mL recombinant human interleukin 7 (Peprotech, Cat. 200-07), and 5 ng/mL recombinant human interleukin 15 (Peprotech, Cat. 200-15) and 2.5% human AB serum (GeminiBio, Cat. 100-512). Technical replicates were prepared using isolated T cells from multiple donors. Data shown is from a selected donor.
(§5) LNPs were generally prepared as described in Example 1. Lipid nanoparticles in this example were prepared with molar ratios of 35 Lipid A: 47.5 cholesterol: 15 DSPC: 2.5 PEG2k-DMG. LNPs were made with a lipid amine to RNA phosphate (N:P) molar ratio of about 6. LNPs were formulated with a single RNA species or coformulated with multiple RNA species as described in Table 32. LNPs were delivered to T cells in TCAM media containing ApoE3 (Peprotech, Cat. 350-02) as described in Table 32.
(§6) On Day 1 (e.g., about 24 hours post thaw) cells were harvested and activated with TransAct™ (1:100 dilution, Miltenyi Biotec). LNPs were applied at the doses listed in Table 32 on Day 3 along with 0.5 uM of Compound 1.
(§7) Beginning on Day 4, cells were split and media refreshed regularly. On Day 7, a portion of cells were harvested for sequencing analysis at TRAC, TRBC1, TRBC2 and CIITA loci. NGS analysis was performed as described in Example 1. Table 33 and FIG. 15 show mean percent editing for these cells.

CIITA locus = assay: NGS percent editing with SpyCas9 and Nme2 base editor, CIITA (Example 9); details: CIITA BE guide, Day 7
From the text: as §1, §2, §3, §4, §5, §6, §7

AAVS1 = assay: GFP insertion at AAVS1 in T cells with SpyCas9 RNP and gapped AAV templates, flow cytometry (Example 6); details: Template OG, day 7 post-editing
Experimental: AAVS1 guide RNAs were designed and screened to identify insertion SpyCas9 guides using a series of gapped AAV GFP templates (A, B, C, D, OG) each designed for a subset of the guide RNAs. Insertion efficacy in T cells was examined by assessing GFP expression by flow cytometry. The percentage of T cells positive for green fluorescent protein (“% GFP+”) was assayed by flow cytometry, following AAVS1 editing by mRNA and AAV delivery.
Healthy human donor apheresis was obtained commercially (Hemacare) from two donors (#110042863 and #110040377) and cells were washed and resuspended in MACS Buffer containing 2 mM EDTA and 0.5% Fetal Bovine Serum (FBS) in PBS. Cells were washed twice by centrifugation followed by CD3 negative selection using Easy Sep Human T Cell Isolation Kit (Stemcell, Cat. 100-0695) and separated using Easy Sep Magnets (Stemcell, Cat.18000). T cells were aliquoted and cryopreserved for future use in Cryostor® CS10 (StemCell Technologies Cat. 07930).
AAVS1 guide RNAs were assessed for insertion efficacy in T cells by assessing GFP expression by flow cytometry. The percentage of T cells positive for green fluorescent protein (“% GFP+”) was assayed by flow cytometry, following AAVS1 editing by mRNA and AAV delivery.
AAVS1 targeting sgRNAs corresponding to the flanking homology regions of Gap Templates A, B, C, D, & OG (SEQ ID NOs: 299-303) were removed from their storage plates and denatured for 2 minutes at 95° C. before cooling at room temperature for 10 minutes. RNP mixture of 20 μM sgRNA and 10 μM Cas9-NLS protein (SEQ ID NO: 296) was prepared and incubated at 25° C. for 10 minutes. 2.5 μL of RNP mixture was combined with 250,000 cells in […] P3 electroporation Buffer (Lonza). 22 μL of RNP/cell mix was transferred to the corresponding wells of a Lonza shuttle 96-well electroporation plate. Cells were electroporated in duplicate with the manufacturer's pulse code. T cell media described above without any cytokines was added to the cells immediately post electroporation. T cells were rested for 10 minutes at 37° C. Gap Template AAVs were prepared in 48 well plates (Corning, Cat.353078)) with T cell media described above containing 2× cytokines, 400 U/mL recombinant human interleukin-2 (Peprotech, Cat. 200-02), 10 ng/ml recombinant human interleukin 7 (Peprotech, Cat. 200-07), and 10 ng/ml recombinant human interleukin 15 (Peprotech, Cat. 200-15) cytokines. The multiplicity of infection (MOI) of AAVs was 3×10^^5. AAVs were added to the T cells within 15 minutes post electroporation and incubated for 48 hours at 37° C. AAV-6 vectors encoded AAVS1 Template A, B, C, D or OG. Two days post-electroporation, cells were split 1:2 in 48 well plates replenished with T cell media with 1× cytokines as described above. sgRNAs were tested each with AAV constructs and gapped template.
On day 7 post-editing, cells were phenotyped by flow cytometry to determine GFP expression to confirm integration of AAV at their GAP template site. Briefly, T cells were washed in FACS buffer containing 2 mM EDTA (Invitrogen, Cat.15575020) and 1% FBS in PBS followed by re-suspending in FACS buffer containing 1:10,000 dilution of DAPI (Biolegend, Cat.422801) nuclear stain. Cells were then processed on a Cytoflex flow cytometer (Beckman Coulter) and analyzed using the FlowJo software package. T cells were gated based on size, shape, viability, and GFP expression. Values that were not determined by the flow cytometer were denoted as “ND”. Table 18 and FIGS. 8A-8B show mean percentage of T cells positive for GFP expression.

B1: G028986: TRBC sgRNA for Nme2 Base Editor (nucleic acid)
guide: GUGUCCUACCAGCAAGGGGUCCUGGUUGUAGCUCCCUGAAACCGUUGCUACAAUAAGGCCGUCGAAAGAUGUGCCGCAACGCUCUGCCUUCUGGCAUCGUU
modifications: chemical modifications; listed as RNA; modified_base 1: mod_base = OTHER; note = 2'-O-methyl modified nucleotide with phosphorothioate linkage; modified_base 2: mod_base = OTHER; modified_base 3: mod_base = OTHE
notes: TRBC sgRNA for Nme2 Base Editor
Mean percent editing, C to A/G (TRBC1 locus; BE mRNA 0.5 ug/mL): 1.0%
Mean percent editing, C to T (TRBC1 locus; BE mRNA 0.5 ug/mL): 94.4%
Mean percent editing, Indels (TRBC1 locus; BE mRNA 0.5 ug/mL): 0.3%
Mean percent editing, C to A/G (TRBC1 locus; BE mRNA 1.0 ug/mL): 0.9%
Mean percent editing, C to T (TRBC1 locus; BE mRNA 1.0 ug/mL): 93.3%
Mean percent editing, Indels (TRBC1 locus; BE mRNA 1.0 ug/mL): 1.0%

B2: G026584 (nucleic acid)
guide: UCAAAGUACCCUACAGGAGGACCAGUUGUAGCUCCCUGAAACCGUUGCUACAAUAAGGCCGUCGAAAGAUGUGCCGCAACGCUCUGCCUUCUGGCAUCGUU
modifications: chemical modifications, further chemistry not given here
Mean percent editing, C to A/G (CIITA locus; BE mRNA 0.5 ug/mL): 1.2%
Mean percent editing, C to T (CIITA locus; BE mRNA 0.5 ug/mL): 91.8%
Mean percent editing, Indels (CIITA locus; BE mRNA 0.5 ug/mL): 0.9%
Mean percent editing, C to A/G (CIITA locus; BE mRNA 1.0 ug/mL): 1.4%
Mean percent editing, C to T (CIITA locus; BE mRNA 1.0 ug/mL): 91.6%
Mean percent editing, Indels (CIITA locus; BE mRNA 1.0 ug/mL): 0.6%

B3: G013543: AAVS1 SpyCas9 guide RNA, guide sequence SEQ ID NO: 257, chr19:55115755-55115775 (nucleic acid)
guide: mU*mG*mU*rCrCrCrUrArGrUrGrGrCrCrCrCrArCrUrGrGrUrUrUrUrArGrAmGmCmUmAmGmAmAmAmUmAmGmCrArArGrUrUrArArArArUrArArGrGrCrUrArGrUrCrCrGrUrUrArUrCrAmAmCmUmUmGmAmAmAmAmAmGmUmGmGmCmAmCmCmGmAmGmUmCmGmGmUmGmCmU*mU*mU*mU
Mean percentage of T cells positive for GFP expression (AAVS1; Donor 1): 65.25%
Mean percentage of T cells positive for GFP expression (AAVS1; Donor 2): 64.40%
